In the supplement of paper PMC10065799, “High-throughput profiling of sequence recognition by tyrosine kinases and SH2 domains using bacterial peptide display” (eLife, 2023):

Assays:
[1] = target: SHP2-C SH2; experiment: SH2 binding enrichment of the phosphorylated peptide, bacterial display (enrichment ratio); higher = better substrate or ligand; peptides without Tyr show the background
[2] = target: c-Src SH2; experiment: as above
[3] = target: Grb2 SH2 (UniProt P62993); experiment: as above
[4] = target: FGFR3 (UniProt P22607); experiment: phosphorylation enrichment, bacterial display (enrichment ratio); higher = better substrate or ligand; peptides without Tyr show the background
[5] = test system: AncSZ; experiment: as above
[6] = target: Fes (UniProt P07332); experiment: as above
[7] = target: Jak2 (UniProt O60674); experiment: as above
[8] = target: Fyn (UniProt P06241); experiment: as above
[9] = target: EPHB2 (UniProt P29323); experiment: as above
[10] = test system: c-Abl (mouse); experiment: as above
[11] = test system: Fer (mouse); experiment: as above
[12] = target: FGFR1 (UniProt P11362); experiment: as above
[13] = target: EPHB1 (UniProt P54762); experiment: as above
[14] = test system: c-Src; experiment: as above
[15] = target: Hck (UniProt P08631); experiment: as above
[16] = target: MERTK (UniProt Q12866); experiment: as above
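Throughout, for SH2 binding enrichment of the phosphorylated peptide, bacterial display: peptide library displayed on the E. coli surface as eCPX fusions, selected cells deep-sequenced, score is each peptide's frequency after selection divided by its frequency in the input.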
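Throughout, for phosphorylation enrichment, bacterial display: 11-residue human phosphosite peptides and single-mutation variants displayed on the E. coli surface, counted by deep sequencing, each peptide's frequency after selection divided by its frequency in the unselected input library; frequency after pTyr selection over input frequency; kinase dosed for 20-30% of maximal phosphorylation in three min.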

FGFR1, sequence (P11362 whole entry, looked up): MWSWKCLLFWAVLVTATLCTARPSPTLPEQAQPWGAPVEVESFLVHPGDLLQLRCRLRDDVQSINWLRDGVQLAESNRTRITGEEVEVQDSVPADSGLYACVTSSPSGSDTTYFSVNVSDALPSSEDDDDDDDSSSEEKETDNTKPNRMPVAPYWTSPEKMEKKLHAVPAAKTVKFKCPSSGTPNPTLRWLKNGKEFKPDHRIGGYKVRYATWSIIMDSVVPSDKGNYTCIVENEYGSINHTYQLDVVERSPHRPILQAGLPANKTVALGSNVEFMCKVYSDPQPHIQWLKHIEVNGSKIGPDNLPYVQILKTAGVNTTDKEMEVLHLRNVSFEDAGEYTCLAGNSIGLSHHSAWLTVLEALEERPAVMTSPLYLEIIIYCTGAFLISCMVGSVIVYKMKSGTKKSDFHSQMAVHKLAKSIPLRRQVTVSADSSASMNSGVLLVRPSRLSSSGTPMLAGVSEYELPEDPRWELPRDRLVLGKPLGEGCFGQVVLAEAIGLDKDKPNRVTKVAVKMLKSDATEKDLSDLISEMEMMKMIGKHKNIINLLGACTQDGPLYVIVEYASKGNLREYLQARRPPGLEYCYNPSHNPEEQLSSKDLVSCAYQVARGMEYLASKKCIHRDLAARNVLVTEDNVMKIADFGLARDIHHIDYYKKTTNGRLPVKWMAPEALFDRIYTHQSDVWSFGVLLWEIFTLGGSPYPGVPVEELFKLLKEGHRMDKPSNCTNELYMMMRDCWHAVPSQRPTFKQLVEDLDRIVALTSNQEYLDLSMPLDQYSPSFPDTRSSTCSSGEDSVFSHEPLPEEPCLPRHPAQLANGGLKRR
Fyn, sequence (P06241 whole entry, looked up): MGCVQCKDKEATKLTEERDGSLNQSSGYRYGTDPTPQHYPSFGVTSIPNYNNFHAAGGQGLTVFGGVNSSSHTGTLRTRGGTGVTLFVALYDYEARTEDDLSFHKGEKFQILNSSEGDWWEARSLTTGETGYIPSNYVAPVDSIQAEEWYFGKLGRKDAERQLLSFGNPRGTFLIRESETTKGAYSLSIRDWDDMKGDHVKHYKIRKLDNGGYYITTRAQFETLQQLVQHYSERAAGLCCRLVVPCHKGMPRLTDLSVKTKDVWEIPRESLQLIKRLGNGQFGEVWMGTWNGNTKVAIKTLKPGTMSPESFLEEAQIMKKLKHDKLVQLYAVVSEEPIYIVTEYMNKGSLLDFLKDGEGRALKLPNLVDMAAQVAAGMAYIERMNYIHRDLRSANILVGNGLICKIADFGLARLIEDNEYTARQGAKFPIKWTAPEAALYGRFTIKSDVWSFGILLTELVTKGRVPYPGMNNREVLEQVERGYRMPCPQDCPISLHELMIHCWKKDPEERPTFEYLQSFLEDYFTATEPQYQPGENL
EPHB2, sequence (P29323 whole entry, looked up): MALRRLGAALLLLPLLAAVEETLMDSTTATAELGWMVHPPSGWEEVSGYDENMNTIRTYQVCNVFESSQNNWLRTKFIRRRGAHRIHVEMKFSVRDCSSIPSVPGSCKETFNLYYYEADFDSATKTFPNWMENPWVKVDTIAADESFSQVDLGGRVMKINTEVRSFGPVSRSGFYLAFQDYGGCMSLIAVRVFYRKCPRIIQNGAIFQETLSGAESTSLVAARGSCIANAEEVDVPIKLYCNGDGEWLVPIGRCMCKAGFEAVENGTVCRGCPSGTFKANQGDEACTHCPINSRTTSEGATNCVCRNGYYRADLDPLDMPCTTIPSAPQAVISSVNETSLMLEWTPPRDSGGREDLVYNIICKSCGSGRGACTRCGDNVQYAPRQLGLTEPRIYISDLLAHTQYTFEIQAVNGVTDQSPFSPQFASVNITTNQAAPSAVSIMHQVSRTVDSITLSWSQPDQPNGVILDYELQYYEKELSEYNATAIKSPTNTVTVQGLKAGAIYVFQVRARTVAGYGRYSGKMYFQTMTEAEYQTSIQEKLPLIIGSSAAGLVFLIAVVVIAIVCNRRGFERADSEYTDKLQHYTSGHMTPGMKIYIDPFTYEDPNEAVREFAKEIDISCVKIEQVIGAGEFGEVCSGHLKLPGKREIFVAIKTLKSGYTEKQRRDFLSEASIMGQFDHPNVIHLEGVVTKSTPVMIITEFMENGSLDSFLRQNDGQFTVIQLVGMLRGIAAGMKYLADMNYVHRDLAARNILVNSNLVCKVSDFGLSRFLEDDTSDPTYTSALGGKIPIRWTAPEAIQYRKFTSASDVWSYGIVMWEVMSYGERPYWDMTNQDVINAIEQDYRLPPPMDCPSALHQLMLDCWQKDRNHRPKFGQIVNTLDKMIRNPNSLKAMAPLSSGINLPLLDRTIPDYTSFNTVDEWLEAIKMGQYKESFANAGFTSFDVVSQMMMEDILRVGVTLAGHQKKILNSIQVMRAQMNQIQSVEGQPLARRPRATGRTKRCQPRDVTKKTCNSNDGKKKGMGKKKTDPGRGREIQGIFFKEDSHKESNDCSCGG
Hck, sequence (P08631 whole entry, looked up): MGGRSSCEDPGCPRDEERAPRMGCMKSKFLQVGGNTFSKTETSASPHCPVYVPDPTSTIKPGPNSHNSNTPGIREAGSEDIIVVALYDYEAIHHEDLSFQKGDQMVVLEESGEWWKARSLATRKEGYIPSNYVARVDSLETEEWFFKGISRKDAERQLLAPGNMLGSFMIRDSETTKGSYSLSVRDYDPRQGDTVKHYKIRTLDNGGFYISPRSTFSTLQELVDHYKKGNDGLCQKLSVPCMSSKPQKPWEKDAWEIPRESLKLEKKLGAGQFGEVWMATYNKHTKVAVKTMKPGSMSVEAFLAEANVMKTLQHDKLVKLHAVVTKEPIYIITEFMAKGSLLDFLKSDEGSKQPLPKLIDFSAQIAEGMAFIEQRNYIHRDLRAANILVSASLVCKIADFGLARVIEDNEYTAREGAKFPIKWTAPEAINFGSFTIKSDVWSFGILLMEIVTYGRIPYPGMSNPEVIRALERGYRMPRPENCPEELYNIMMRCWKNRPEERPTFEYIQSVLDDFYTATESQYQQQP
EPHB1, sequence (P54762 whole entry, looked up): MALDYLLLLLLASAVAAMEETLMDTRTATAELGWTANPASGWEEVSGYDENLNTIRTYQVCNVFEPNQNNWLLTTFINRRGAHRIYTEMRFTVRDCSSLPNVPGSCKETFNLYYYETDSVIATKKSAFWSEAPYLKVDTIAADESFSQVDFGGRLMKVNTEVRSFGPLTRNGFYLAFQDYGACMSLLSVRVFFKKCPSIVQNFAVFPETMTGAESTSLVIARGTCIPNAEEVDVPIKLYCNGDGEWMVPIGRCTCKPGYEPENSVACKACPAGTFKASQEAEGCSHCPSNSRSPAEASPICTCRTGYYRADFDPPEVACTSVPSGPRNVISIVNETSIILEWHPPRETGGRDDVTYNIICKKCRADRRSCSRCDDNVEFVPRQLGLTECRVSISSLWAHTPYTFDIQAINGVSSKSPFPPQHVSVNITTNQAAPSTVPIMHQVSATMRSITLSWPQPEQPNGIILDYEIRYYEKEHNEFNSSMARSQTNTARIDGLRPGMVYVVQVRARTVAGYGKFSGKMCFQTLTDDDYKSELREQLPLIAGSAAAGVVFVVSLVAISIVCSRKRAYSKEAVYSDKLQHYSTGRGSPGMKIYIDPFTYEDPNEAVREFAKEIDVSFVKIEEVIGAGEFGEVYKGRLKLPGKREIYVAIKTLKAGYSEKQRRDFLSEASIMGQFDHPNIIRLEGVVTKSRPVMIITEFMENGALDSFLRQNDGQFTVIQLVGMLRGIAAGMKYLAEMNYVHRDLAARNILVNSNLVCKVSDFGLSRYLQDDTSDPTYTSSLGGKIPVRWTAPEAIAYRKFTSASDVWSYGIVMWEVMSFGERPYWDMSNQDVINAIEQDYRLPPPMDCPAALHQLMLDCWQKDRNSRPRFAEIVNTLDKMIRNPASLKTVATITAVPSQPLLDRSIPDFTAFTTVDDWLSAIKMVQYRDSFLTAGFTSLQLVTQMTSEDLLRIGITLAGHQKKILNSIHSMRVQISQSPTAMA
MERTK, sequence (Q12866 whole entry, looked up, the tested form may be a part): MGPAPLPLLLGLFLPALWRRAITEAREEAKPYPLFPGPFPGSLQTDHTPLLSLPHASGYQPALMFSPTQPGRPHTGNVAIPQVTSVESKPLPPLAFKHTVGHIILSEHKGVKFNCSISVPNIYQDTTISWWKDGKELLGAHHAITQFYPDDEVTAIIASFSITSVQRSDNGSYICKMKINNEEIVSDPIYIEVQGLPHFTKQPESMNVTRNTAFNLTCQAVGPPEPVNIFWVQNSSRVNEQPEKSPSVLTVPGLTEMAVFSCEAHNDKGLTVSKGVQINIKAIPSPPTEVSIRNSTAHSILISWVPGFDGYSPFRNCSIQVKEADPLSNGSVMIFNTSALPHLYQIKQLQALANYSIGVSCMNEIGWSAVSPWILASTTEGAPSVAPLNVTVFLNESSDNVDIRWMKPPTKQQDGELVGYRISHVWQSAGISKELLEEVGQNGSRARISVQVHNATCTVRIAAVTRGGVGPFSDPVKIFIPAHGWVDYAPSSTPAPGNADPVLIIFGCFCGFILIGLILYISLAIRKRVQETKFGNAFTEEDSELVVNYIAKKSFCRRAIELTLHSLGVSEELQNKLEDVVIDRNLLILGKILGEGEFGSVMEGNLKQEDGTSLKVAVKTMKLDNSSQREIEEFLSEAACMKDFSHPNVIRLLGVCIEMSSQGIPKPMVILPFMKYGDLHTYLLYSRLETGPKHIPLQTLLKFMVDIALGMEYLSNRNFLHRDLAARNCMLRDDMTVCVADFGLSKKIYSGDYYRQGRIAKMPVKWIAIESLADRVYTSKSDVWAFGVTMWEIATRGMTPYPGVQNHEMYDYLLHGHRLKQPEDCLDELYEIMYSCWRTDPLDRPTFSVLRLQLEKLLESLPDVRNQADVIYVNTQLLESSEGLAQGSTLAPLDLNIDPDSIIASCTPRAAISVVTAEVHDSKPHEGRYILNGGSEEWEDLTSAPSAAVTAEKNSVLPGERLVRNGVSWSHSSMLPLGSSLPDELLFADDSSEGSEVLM

SH2 binding enrichment [1]	SH2 binding enrichment [2]	SH2 binding enrichment [3]	Sequence	phosphorylation enrichment [4]	phosphorylation enrichment [5]	phosphorylation enrichment [6]	phosphorylation enrichment [7]	phosphorylation enrichment [8]	phosphorylation enrichment [9]	phosphorylation enrichment [10]	phosphorylation enrichment [11]	phosphorylation enrichment [12]	phosphorylation enrichment [13]	phosphorylation enrichment [14]	phosphorylation enrichment [15]	phosphorylation enrichment [16]
0.849	0.776	1.05	ACCLLYRGDVV [TUBA4A_Y319]	1.34	0.947	0.889	0.853	0.565	0.557	0.482	0.758	3.27	0.507	5.88	0.645	0.709
0.646	0.635	0.943	IPGGIYNADLN [CST4_Y35_D36N]	0.516	0.748	0.95	0.746	1.27	0.366	0.654	0.472	0.542	0.514	1.36	1.27	0.443
0.622	0.413	0.768	IDGLEYLHSQS [STK11_Y166_G171S]	0.597	0.953	1.07	0.831	0.465	0.549	0.616	0.476	0.457	0.503	0.357	0.604	0.325
0.623	22.5	0.666	EVRAQYEEIAQ [KRT76_Y361]	0.98	1.19	1.22	1.07	0.526	0.641	0.92	0.977	0.611	0.697	0.388	0.614	0.404
